Measurements taken from the MegaScale stability set (Tsuboyama et al. 2023).

B1: 2M8U (parent)
chain: TKAQVIEAFKVFDRDGNGYVTVDYLRKVLNELGDMMPADEIEEMIYEADPQNSGYVQYETFVGMLFL

Variants of: B1
Assay: folding stability dG (cDNA display proteolysis); higher = more stable
Details: PBS, room temperature

| Variant | folding stability dG |
| --- | --- |
| Y46A | 3.52 kcal/mol |
| Y46Q | 3.66 kcal/mol |
| Y46P | 2.82 kcal/mol |
| Y46T | 3.62 kcal/mol |
| Y46D | 3.29 kcal/mol |
| Y46F | 3.55 kcal/mol |
| A38M | 3.76 kcal/mol |
| A38G | 3.41 kcal/mol |
| V62D | 1.28 kcal/mol |
| V62E | 1.66 kcal/mol |
| K27R | 3.48 kcal/mol |
| K27M | 3.55 kcal/mol |
| M44P | 1.8 kcal/mol |
| M44A | 3.48 kcal/mol |
| M44V | 3.07 kcal/mol |
| T21M | 3.4 kcal/mol |
| T21I | 2.89 kcal/mol |
| T21G | 3.51 kcal/mol |
| T21E | 3.65 kcal/mol |
| T21W | 3.22 kcal/mol |
| T21H | 4.14 kcal/mol |
| V28F | 2.86 kcal/mol |
| V28E | 1.63 kcal/mol |
| V28Q | 2.25 kcal/mol |

| Variant | folding stability dG |
| --- | --- |
| V28H | 2.17 kcal/mol |
| G54C | 2.59 kcal/mol |
| G54P | 2.26 kcal/mol |
| Q51H | 3.54 kcal/mol |
| Q51P | 2.52 kcal/mol |
| Q51Y | 3.62 kcal/mol |
| Q51M | 3.49 kcal/mol |
| Q51R | 3.3 kcal/mol |
| G63F | 3.29 kcal/mol |
| G63K | 3.45 kcal/mol |
| G63T | 3.77 kcal/mol |
| E7V | 3.08 kcal/mol |
| Q57S | 2.71 kcal/mol |
| Q57A | 3.31 kcal/mol |
| Q57V | 3.1 kcal/mol |
| Q57P | 2.64 kcal/mol |
| Q57N | 3.61 kcal/mol |
| Q57W | 3.18 kcal/mol |
| V11L | 3.44 kcal/mol |
| V11A | 3.77 kcal/mol |
| V11S | 3.56 kcal/mol |
| I45C | 2.67 kcal/mol |
| I45M | 2.88 kcal/mol |
| I45W | 2.6 kcal/mol |

| Variant | folding stability dG |
| --- | --- |
| L67M | 3.46 kcal/mol |
| L67I | 3.3 kcal/mol |
| L67T | 3.3 kcal/mol |
| L67Y | 3.08 kcal/mol |
| L67D | 4.28 kcal/mol |
| Y19E | 2.63 kcal/mol |
| Y19H | 2.94 kcal/mol |
| Y24D | 4.63 kcal/mol |
| Y24C | 4.02 kcal/mol |
| Y24R | 3.94 kcal/mol |
| Y24V | 4.38 kcal/mol |
| S53K | 3.39 kcal/mol |
| S53N | 3.26 kcal/mol |
| S53A | 3.19 kcal/mol |
| A48R | 2.9 kcal/mol |
| A48V | 3.28 kcal/mol |
| A48D | 2.1 kcal/mol |
| Y58A | 2.11 kcal/mol |
| Y58C | 2.07 kcal/mol |
| Y58E | 1.4 kcal/mol |
| R26N | 2.59 kcal/mol |
| R26A | 2.49 kcal/mol |
| A8P | 2.02 kcal/mol |
| A8M | 3.76 kcal/mol |

| Variant | folding stability dG |
| --- | --- |
| A8F | 3.23 kcal/mol |
| M35A | 3.09 kcal/mol |
| M35E | 2.98 kcal/mol |
| M36K | 3.66 kcal/mol |
| M36Q | 3.19 kcal/mol |
| M36D | 2.72 kcal/mol |
| M36W | 4.42 kcal/mol |
| M36I | 3.75 kcal/mol |
| F66H | 2.67 kcal/mol |
| F66S | 2.72 kcal/mol |
| F66D | 2.96 kcal/mol |
| F66E | 2.56 kcal/mol |
| E31D | 3.62 kcal/mol |
| E31N | 3.36 kcal/mol |
| E31V | 3.49 kcal/mol |
| G16S | 3.03 kcal/mol |
| G16P | 2.11 kcal/mol |
| G16Y | 2.49 kcal/mol |
| G16Q | 3.25 kcal/mol |
| D15G | 2.75 kcal/mol |
| D15R | 1.81 kcal/mol |
| D15S | 2.84 kcal/mol |
| D23Q | 3.65 kcal/mol |
| D23R | 3.33 kcal/mol |

| Variant | folding stability dG |
| --- | --- |
| D23Y | 4.04 kcal/mol |
| V22S | 3.02 kcal/mol |
| V22Y | 3.44 kcal/mol |
| V22M | 3 kcal/mol |
| V22H | 3.5 kcal/mol |
| V22L | 3.49 kcal/mol |
| E40V | 3.74 kcal/mol |
| E40K | 3.91 kcal/mol |
| E40S | 3.7 kcal/mol |
| E40Y | 4.06 kcal/mol |
| F9K | 2.18 kcal/mol |
| F9P | 2.32 kcal/mol |
| E47F | 3.75 kcal/mol |
| E47A | 3.76 kcal/mol |
| K10S | 2.86 kcal/mol |
| K10V | 3.17 kcal/mol |
| K10L | 3.25 kcal/mol |
| V20N | 2.76 kcal/mol |
| V20M | 2.59 kcal/mol |
| V20C | 3.04 kcal/mol |
| N30G | 3.6 kcal/mol |
| N30R | 3.54 kcal/mol |
| L65Q | 1.84 kcal/mol |
| E43L | 3.73 kcal/mol |

| Variant | folding stability dG |
| --- | --- |
| E43C | 3.74 kcal/mol |
| T1G | 2.88 kcal/mol |
| T1F | 2.91 kcal/mol |
| T1E | 2.94 kcal/mol |
| T1M | 3.21 kcal/mol |
| T1N | 3.18 kcal/mol |
| T1H | 3.16 kcal/mol |
| T1K | 3.48 kcal/mol |
| T1Y | 2.83 kcal/mol |
| F61W | 2.62 kcal/mol |
| F61M | 2.31 kcal/mol |
| F61S | 1.33 kcal/mol |
| N17T | 3.95 kcal/mol |
| N17Y | 3 kcal/mol |
| G33W | 3.55 kcal/mol |
| G33D | 3.25 kcal/mol |
| D39E | 3.59 kcal/mol |
| D39T | 3.66 kcal/mol |
| D39A | 3.7 kcal/mol |
| D39Y | 3.86 kcal/mol |
| M64D | 3.23 kcal/mol |
| M64G | 3.04 kcal/mol |
| M64Y | 3.25 kcal/mol |
| M64K | 4.14 kcal/mol |

| Variant | folding stability dG |
| --- | --- |
| A3F | 3 kcal/mol |
| A3D | 3.28 kcal/mol |
| A3W | 2.9 kcal/mol |
| N52M | 3.42 kcal/mol |
| N52Q | 3.47 kcal/mol |
| N52K | 3.4 kcal/mol |
| Q4S | 3.47 kcal/mol |
| Q4F | 2.87 kcal/mol |
| Q4E | 3.41 kcal/mol |
| Q4P | 2.35 kcal/mol |
| Q4K | 3.38 kcal/mol |
| Q4C | 3.56 kcal/mol |
| V56R | 2.24 kcal/mol |
| V56M | 2.55 kcal/mol |
| V56T | 2.14 kcal/mol |
| V56K | 1.78 kcal/mol |
| V56I | 3.69 kcal/mol |
| V56E | 2.33 kcal/mol |
| T60L | 3.72 kcal/mol |
| T60P | 3.52 kcal/mol |
| L25G | 1.92 kcal/mol |
| D34R | 3.51 kcal/mol |
| D34K | 3.43 kcal/mol |
